Columns and labels:
Assay in all cases: MSD inhibition assay, abeta 1-28 coated plates
Var24 = target: Var24
[1] = target: T1, abeta 1-12 trimer construct (UniProt P05067 672-683; P05067 672-683; P05067 672-683)
T1 construct: range 1-12
T1 sequence (peptide): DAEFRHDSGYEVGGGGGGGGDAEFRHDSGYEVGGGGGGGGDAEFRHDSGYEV

Met-var24 = target: Met-var24

Measured: binding result

B1: Biosimilar (BS) bapineuzumab (antibody, V domains shown)
VH: EVQLVESGGGLVQPGGSLRLSCAGSGFTFSNYGMSWVRQAPGKGLEWVASIRSGGGRTYYSDNVKGRFTISRENAKNSLYLQMNSLRAEDTAVYYCVRYDHYSGSSDYWGQGTLVTVSS
VL: DVVMTQSPLSLPVTLGQPASISCKSSQSLLDSDGKTYLNWLQQRPGQSPRRLIYLVSKLDSGVPDRFSGSGSGTDFTLKISRVEAEDVGVYYCWQGTHFPRTFGGGTKVEIKR
binds: Var24 | [1] | Met-var24
